B1: ANKRD17 (parent)
chain: EMVRFLLEAGADQEHKTDEMHTAL
B2: VAMP4 (parent)
chain: IMALVAAILLLVIIILIVMKYRT
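Further: lentivirally expressed fusions sorted by FACS into six bins by GFP to DsRed ratio, PSI derived from sequencing read proportions per bin multiplied by bin number.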

Variants of: B1
Experiment: protein stability index of a GFP-peptide fusion (GPS, HEK-293T) (PSI 1-6); higher = more stable
Settings: c terminus: a fixed tail appended
In the case of EMVRFLLEAGADQEHKTDEMHTAR [L24R], the protein stability index is reported as 2.72. EMVRFLLEAGADQEHKTDEMHTAS [L24S] gave a protein stability index of 2.99. EMVRFLLEAGADQEHKTDEMHTAT [L24T] gave a protein stability index of 3.05. Variant EMVRFLLEAGADQEHKTDEMHTAV [L24V] has a protein stability index of 2.62. For EMVRFLLEAGADQEHKTDEMHTAW [L24W], the protein stability index was 2.68. EMVRFLLEAGADQEHKTDEMHTAY [L24Y] gave a protein stability index of 2.95.

Variants of: B2
Experiment: as above
Settings: c terminus: native
In the case of AMALVAAILLLVIIILIVMKYRT [I1A], the protein stability index is reported as 3.25. CMALVAAILLLVIIILIVMKYRT [I1C] gave a protein stability index of 3.16. In the case of DMALVAAILLLVIIILIVMKYRT [I1D], the protein stability index is reported as 2.5. EMALVAAILLLVIIILIVMKYRT [I1E] showed a protein stability index of 2.77. FMALVAAILLLVIIILIVMKYRT [I1F] gave a protein stability index of 3.39. With GMALVAAILLLVIIILIVMKYRT [I1G] the protein stability index was 3.11. With HMALVAAILLLVIIILIVMKYRT [I1H] the protein stability index was 3.39. KMALVAAILLLVIIILIVMKYRT [I1K] gave a protein stability index of 3.29. LMALVAAILLLVIIILIVMKYRT [I1L] showed a protein stability index of 3.49. MMALVAAILLLVIIILIVMKYRT [I1M] gave a protein stability index of 3.56. NMALVAAILLLVIIILIVMKYRT [I1N] showed a protein stability index of 2.69. Work on PMALVAAILLLVIIILIVMKYRT [I1P] yielded a protein stability index of 3.56. Variant QMALVAAILLLVIIILIVMKYRT [I1Q] has a protein stability index of 3.45. Work on RMALVAAILLLVIIILIVMKYRT [I1R] yielded a protein stability index of 3.06. For SMALVAAILLLVIIILIVMKYRT [I1S], the protein stability index was 3.02. For TMALVAAILLLVIIILIVMKYRT [I1T], the protein stability index was 3.53. In the case of VMALVAAILLLVIIILIVMKYRT [I1V], the protein stability index is reported as 3.38. Variant WMALVAAILLLVIIILIVMKYRT [I1W] has a protein stability index of 3.51. Work on YMALVAAILLLVIIILIVMKYRT [I1Y] yielded a protein stability index of 3.52. For IAALVAAILLLVIIILIVMKYRT [M2A], the protein stability index was 2.73. For ICALVAAILLLVIIILIVMKYRT [M2C], the protein stability index was 3.25. For IDALVAAILLLVIIILIVMKYRT [M2D], the protein stability index was 2.98. Variant IEALVAAILLLVIIILIVMKYRT [M2E] has a protein stability index of 2.4. IFALVAAILLLVIIILIVMKYRT [M2F] showed a protein stability index of 3.53. Work on IGALVAAILLLVIIILIVMKYRT [M2G] yielded a protein stability index of 2.98. IHALVAAILLLVIIILIVMKYRT [M2H] gave a protein stability index of 2.4. Variant IIALVAAILLLVIIILIVMKYRT [M2I] has a protein stability index of 3.15. IKALVAAILLLVIIILIVMKYRT [M2K] showed a protein stability index of 2.98. With ILALVAAILLLVIIILIVMKYRT [M2L] the protein stability index was 3.03. Variant INALVAAILLLVIIILIVMKYRT [M2N] has a protein stability index of 1.93. IPALVAAILLLVIIILIVMKYRT [M2P] showed a protein stability index of 3.28. For IQALVAAILLLVIIILIVMKYRT [M2Q], the protein stability index was 2.96. Work on IRALVAAILLLVIIILIVMKYRT [M2R] yielded a protein stability index of 3.53. Work on ISALVAAILLLVIIILIVMKYRT [M2S] yielded a protein stability index of 3.18. ITALVAAILLLVIIILIVMKYRT [M2T] gave a protein stability index of 2.81. IVALVAAILLLVIIILIVMKYRT [M2V] showed a protein stability index of 2.72. Variant IWALVAAILLLVIIILIVMKYRT [M2W] has a protein stability index of 3.66. With IYALVAAILLLVIIILIVMKYRT [M2Y] the protein stability index was 3.22. In the case of IMCLVAAILLLVIIILIVMKYRT [A3C], the protein stability index is reported as 3.34. In the case of IMDLVAAILLLVIIILIVMKYRT [A3D], the protein stability index is reported as 1.33. Variant IMELVAAILLLVIIILIVMKYRT [A3E] has a protein stability index of 2.2. For IMFLVAAILLLVIIILIVMKYRT [A3F], the protein stability index was 3.55.

From the supplement of paper PMC10567573
